Reference: patent US6525022B1, “Receptor specific atrial natriuretic peptides” (Genentech, Inc., priority 1993, dated 2003)
Bridges are numbered along the chain shown (N, C = ends). Primed or numbered codes have the meaning given here. Where no end group is shown, it is not given here. [ ]: non-standard residue; d: D form. Phg′ = phenylglycine, D or L; Mpa = O=C(O)CCS

Columns and labels:
[1] = target: T1, human natriuretic peptide clearance receptor-C (human), P17342; experiment: competition binding, membranes; settings: chains peptide; modification not given
T1 chain: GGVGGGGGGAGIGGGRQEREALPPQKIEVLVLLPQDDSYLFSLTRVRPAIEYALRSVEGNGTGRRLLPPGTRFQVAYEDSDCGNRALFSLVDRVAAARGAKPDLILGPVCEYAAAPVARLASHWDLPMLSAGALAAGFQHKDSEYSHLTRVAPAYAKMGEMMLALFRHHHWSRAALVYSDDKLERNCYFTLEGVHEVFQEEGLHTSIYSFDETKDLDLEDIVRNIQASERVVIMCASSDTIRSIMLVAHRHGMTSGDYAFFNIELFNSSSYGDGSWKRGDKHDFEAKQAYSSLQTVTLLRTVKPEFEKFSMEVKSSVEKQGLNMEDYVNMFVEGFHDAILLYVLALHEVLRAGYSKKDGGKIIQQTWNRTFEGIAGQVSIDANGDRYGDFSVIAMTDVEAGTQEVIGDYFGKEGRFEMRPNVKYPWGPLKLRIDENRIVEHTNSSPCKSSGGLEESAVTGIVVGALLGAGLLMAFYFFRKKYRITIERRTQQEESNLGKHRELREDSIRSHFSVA

[2] = target: T2, human natriuretic peptide receptor-A (human), P16066; experiment: competition binding vs 125I-rat ANP, membranes; settings: chains peptide; modification not given
T2 chain: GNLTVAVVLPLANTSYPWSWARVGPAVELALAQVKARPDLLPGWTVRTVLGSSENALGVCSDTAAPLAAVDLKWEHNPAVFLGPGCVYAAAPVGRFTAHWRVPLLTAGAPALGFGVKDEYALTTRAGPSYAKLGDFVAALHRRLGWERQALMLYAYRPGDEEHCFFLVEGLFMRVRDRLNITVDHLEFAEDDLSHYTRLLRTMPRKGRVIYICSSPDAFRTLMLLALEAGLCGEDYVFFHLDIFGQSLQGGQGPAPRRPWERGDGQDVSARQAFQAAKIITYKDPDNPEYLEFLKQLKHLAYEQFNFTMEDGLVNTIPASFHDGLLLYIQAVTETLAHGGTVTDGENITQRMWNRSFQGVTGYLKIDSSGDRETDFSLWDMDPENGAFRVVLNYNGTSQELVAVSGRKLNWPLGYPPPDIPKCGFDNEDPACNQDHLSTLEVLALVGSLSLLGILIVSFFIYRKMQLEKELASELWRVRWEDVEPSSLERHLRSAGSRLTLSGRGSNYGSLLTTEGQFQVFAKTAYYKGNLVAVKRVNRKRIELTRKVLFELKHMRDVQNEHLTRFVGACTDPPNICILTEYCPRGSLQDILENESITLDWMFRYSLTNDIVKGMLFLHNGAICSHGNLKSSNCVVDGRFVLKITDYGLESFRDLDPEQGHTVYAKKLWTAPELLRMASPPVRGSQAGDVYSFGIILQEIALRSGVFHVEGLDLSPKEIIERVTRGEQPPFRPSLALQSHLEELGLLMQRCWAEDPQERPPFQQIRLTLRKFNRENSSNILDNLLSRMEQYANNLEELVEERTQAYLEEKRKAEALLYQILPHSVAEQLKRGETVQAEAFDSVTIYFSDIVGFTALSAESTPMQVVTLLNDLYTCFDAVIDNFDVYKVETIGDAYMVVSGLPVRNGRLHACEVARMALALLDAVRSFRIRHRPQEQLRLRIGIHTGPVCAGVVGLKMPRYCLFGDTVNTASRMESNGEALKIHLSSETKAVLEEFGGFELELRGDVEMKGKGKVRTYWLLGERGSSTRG

[3] = target: T3, human natriuretic peptide receptor-A (human, UniProt P16066 33-1061); experiment: competition binding, Table I; tracer and receptor format not given
T3 construct: whole, on cells; also called hNPR-A; human NPR-A
T3 sequence (looked up): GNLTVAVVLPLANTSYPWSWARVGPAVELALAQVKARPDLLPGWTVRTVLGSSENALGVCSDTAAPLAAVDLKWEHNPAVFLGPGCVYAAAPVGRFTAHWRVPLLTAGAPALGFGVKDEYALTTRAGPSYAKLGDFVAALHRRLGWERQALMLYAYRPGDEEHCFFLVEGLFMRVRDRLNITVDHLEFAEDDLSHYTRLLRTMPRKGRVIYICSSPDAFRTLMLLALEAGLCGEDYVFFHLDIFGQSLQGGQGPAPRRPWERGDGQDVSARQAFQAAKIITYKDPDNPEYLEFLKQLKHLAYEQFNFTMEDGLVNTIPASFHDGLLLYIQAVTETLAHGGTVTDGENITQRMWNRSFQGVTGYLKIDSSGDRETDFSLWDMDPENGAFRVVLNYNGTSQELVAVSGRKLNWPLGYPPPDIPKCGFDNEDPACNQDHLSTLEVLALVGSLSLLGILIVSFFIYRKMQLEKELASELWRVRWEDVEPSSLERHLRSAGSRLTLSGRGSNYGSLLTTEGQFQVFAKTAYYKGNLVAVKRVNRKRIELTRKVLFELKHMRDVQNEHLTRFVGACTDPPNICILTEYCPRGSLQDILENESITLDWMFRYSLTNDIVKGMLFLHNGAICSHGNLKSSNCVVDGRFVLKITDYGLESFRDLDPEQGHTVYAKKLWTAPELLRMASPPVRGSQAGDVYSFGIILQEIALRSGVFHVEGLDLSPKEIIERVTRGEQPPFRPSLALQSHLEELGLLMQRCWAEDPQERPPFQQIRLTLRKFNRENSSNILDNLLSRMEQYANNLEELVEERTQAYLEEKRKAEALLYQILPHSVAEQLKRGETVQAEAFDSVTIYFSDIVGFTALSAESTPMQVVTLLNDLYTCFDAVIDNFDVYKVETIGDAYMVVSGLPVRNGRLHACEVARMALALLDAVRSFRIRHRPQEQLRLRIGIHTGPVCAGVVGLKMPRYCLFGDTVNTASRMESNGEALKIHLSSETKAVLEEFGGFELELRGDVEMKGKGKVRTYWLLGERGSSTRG

[4] = target: T4, human natriuretic peptide clearance receptor-C (human, UniProt P17342 27-541); experiment: as above
T4 construct: whole, on cells; also called hNPR-C; human NPR-C
T4 sequence (looked up): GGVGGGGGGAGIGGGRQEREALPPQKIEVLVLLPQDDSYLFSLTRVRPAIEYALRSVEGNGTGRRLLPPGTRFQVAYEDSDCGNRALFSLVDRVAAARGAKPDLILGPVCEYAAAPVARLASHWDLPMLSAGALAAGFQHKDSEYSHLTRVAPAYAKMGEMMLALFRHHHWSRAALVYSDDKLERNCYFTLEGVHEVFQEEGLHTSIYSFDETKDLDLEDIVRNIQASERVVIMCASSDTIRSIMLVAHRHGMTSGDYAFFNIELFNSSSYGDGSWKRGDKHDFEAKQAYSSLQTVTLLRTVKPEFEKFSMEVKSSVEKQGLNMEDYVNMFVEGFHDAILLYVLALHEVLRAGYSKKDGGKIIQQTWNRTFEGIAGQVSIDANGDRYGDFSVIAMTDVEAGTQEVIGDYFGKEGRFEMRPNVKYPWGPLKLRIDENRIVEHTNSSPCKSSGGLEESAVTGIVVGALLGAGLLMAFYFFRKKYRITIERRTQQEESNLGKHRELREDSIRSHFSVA

[5] = target: human neutral endopeptidase 24.11 (human, UniProt P08473 2-750, limits assumed); experiment: cell-based or functional assay
[6] = target: T5, human neutral endopeptidase 24.11 (human), P08473; experiment: cell-based or functional assay
T5 chain: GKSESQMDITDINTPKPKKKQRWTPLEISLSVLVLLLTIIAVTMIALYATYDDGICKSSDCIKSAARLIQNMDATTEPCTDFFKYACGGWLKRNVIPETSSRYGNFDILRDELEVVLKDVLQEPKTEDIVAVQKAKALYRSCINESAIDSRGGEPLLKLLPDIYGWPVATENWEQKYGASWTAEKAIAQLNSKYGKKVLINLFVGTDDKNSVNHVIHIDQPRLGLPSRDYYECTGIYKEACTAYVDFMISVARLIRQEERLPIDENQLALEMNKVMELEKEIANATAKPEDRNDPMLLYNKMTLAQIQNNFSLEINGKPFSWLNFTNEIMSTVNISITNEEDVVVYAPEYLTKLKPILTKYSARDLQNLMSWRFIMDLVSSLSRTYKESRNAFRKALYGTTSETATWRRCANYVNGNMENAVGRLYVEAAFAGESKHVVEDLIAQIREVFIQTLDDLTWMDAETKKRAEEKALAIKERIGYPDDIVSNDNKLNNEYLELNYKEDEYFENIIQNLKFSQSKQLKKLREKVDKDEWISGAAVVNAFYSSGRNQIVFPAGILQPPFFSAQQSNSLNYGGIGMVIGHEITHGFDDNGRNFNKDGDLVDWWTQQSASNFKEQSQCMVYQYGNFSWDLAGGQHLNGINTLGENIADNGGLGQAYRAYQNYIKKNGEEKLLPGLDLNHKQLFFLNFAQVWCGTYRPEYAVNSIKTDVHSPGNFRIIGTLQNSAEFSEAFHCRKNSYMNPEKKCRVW

B1: ANF 99 (peptide)
chain: SLRRSSCFGGRIDRIREASGLGCNSFRY
IC50 [1]: 121 nM
IC50 [2]: 0.145 nM

B2: ANF 100-1 (peptide)
peptide: SLRRSSC[Phg′]TGSIDRIRAQSGLGCNSFRY
modifications: disulfide 7-23; also: Phg configuration D or L not given here
IC50 [3]: 0.187 nM
IC50 [4]: 3230 nM

B3: ANF 92 (peptide)
peptide: [Mpa]F[dA]GDIDRIRAQSGLGCNSFRY
modifications: ends and bridges not checked
Half-Life [5]: 1.77 h

B4: ANF 80 (peptide)
peptide: [Mpa]F[dT]GSIDRIRAQSGLGCNSFRY
modifications: disulfide 1-17
IC50 [3]: 0.423 nM
IC50 [4]: 739 nM

B5: rat ANP (peptide)
peptide: SLRRSSCFGGRIDRIGAQSGLGCNSFRY
modifications: not checked
Half-Life [6]: 2.75 h
IC50 [1]: 0.145 nM
IC50 [2]: 0.181 nM
